Experimental findings from patent EP1536230A1, “Flow cytometric, particle-based binding assay” (Deutsches Rheuma-Forschungszentrum Berlin, priority 2003, dated 2005) are described below.

Where no end group is shown, it is not given here. The star is where a group is joined. Biotin = O=C1N[C@H]2[C@H](CS[C@H]2CCCCC(=O)*)N1

Assay [1] concerns the target T1, Rekombinantes menschliches CaN (Homo sapiens, UniProt Q08209).
T1 construct: made in house; host or cells: E. coli
Nature of the assay: Flow cytometric, particle-based binding assay: FITC-CaN bound via biotinylated peptide to streptavidin beads. The settings on record: FITC-CaN (25 nM), versus control without peptide; for mittlere Fluoreszenzintensität (Bindung von FITC-CaN über NFAT-B-Peptid an Beads): biot-NFAT-B-Peptid (4µM); for mittlere Fluoreszenzintensität (Bindung von FITC-CaN über biotinyliertes Peptid an Beads): biot-VIVIT-Peptid (300 nM), Streptavidin-Beads (50000). Here is the method: Der Assaypuffer war wie folgt zusammengesetzt: 25mM Tris/HCl, 3mM MgCl2, 1mM EGTA, 0,5mM DTT oder TCEP, pH 7,4. Wenn nicht anders angegeben, wurde der Assaypuffer noch mit 0,05% BSA (PAA laboratories) versetzt.
Rekombinantes menschliches CaN wurde in Boratpuffer aufgenommen und mit FITC (Sigma) in einem molaren Verhältnis von 1:12 für 1h auf Eis und vor Licht geschützt inkubiert. Das ungebundenen FITC wurde dann über eine PD10 Säule (Amersham-Pharmacia) abgetrennt.
NFAT-B Peptid (4 µM) für 10 min lichtgeschützt auf Eis inkubierte, wurden 50000 beads in 10 µl Asaypuffer pipettiert. Nach weiteren 10 min Inkubation wurde das Reaktionsgemisch (110 µl) im Durchflusszytometer "FacsCalibur" (BD Biosciences) gemessen. […] Assay vorgeschaltet. Dafür wurde 1 µl Inhibitor (in DMSO) zu FITC-CaN in Assaypuffer (94 µl) pipettiert und anschließend für 30 min lichtgeschützt auf Eis belassen. Die Auswertung der Meßdaten erfolgte mit der Software CellQuest (BD Biosciences).
In general terms: In flow cytometry, cells or beads pass a laser one at a time.

In the next assay the target is T2, FITC-Ovalbumin (Gallus gallus, UniProt P01012).
T2 construct: purchased Sigma
T2 sequence (P01012 1-386): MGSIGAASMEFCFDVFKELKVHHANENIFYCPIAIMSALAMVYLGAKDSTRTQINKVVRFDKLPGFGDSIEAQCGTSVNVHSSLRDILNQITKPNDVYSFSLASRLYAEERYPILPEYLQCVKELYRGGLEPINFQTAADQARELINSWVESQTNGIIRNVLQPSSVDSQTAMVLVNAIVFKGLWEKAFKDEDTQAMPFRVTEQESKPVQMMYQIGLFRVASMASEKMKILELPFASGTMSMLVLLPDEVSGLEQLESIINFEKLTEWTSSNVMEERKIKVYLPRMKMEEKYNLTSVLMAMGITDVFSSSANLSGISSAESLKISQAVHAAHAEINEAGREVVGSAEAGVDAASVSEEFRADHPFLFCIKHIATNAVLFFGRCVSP
Nature of the assay: Flow cytometric, particle-based binding assay with control protein FITC-Ovalbumin (specificity). The following applies: FITC-Ovalbumin (25 nM); biot-VIVIT-Peptid (300 nM).

“KGGFCDQYLAVPQHPYQWAK [biot-NFAT-B-Peptid]”: the “mittlere Fluoreszenzintensität (Bindung von FITC-CaN über NFAT-B-Peptid an Beads)” value in assay [1] (mit Ca2+/Calmodulin) and in assay [1] (ohne Ca2+/Calmodulin) was “höhere mittlere Fluoreszenzintensität” throughout.
Regarding “biotinyl-EEHPGTIVIVPHPGAMG (Biotin-EEHPGTIVIVPHPGAMG) [biot-TIVIV]”, the “mittlere Fluoreszenzintensität (Bindung von FITC-CaN über biotinyliertes Peptid an Beads)” value was “nicht mit biot-TIVIV eine erhöhte Fluoreszenzintensität” in assay [1] and “keine erhöhte Fluoreszenzintensität” in assay [1] (listed as biot-TIVIV-Peptid).
As for GGRRKRSESSKQQKPLE [AKAP79], the “mittlere Fluoreszenzintensität (Bindung von FITC-CaN über biotinyliertes Peptid an Beads)” value in assay [1] was “bindet”. Moreover, the “Fluoreszenzintensität (Bindung des Kontrollproteins FITC-Ovalbumin)” value in the assay with FITC-Ovalbumin is given as “bindet”.
